From patent publication US20180064827

What was measured:
Test in all cases: cell_activity
ZFN 64983 (synthetic) = details: pair with 64971, Hepa1-6
ZFN 64982 (synthetic) = details: pair with 64971, Hepa1-6; finger linker variant 64972 gave 89.0
ZFN 60461 (synthetic) = details: pair with 64971, Hepa1-6
ZFN 69929 (synthetic) = details: pair with 69920, 0.1 ug mRNA, MK2
ZFN 69926 (synthetic) = details: pair with 69915, 0.1 ug mRNA, MK2
ZFN 69925 (synthetic) = details: pair with 69916, 0.1 ug mRNA, MK2
ZFN 69928 (synthetic) = details: pair with 69916, 0.1 ug mRNA, MK2
ZFN 69922 (synthetic) = details: pair with 69916, 0.1 ug mRNA, MK2
ZFN 60334 (synthetic) = details: pair with 60137, K562
ZFN 25264 (synthetic) = details: pair with 25277, K562, 200 ng
ZFN 69909 (synthetic) = details: pair with 69912, 0.1 ug mRNA, MK2
ZFN 69908 (synthetic) = details: pair with 69912, 0.1 ug mRNA, MK2
ZFN 69903 (synthetic) = details: pair with 69912, 0.1 ug mRNA, MK2
ZFN 69920 (synthetic) = details: pair with 69922, 0.1 ug mRNA, MK2
ZFN 69916 (synthetic) = details: pair with 69922, 0.1 ug mRNA, MK2
ZFN 69915 (synthetic) = details: pair with 69922, 0.1 ug mRNA, MK2
ZFN 69918 (synthetic) = details: pair with 69922, 0.1 ug mRNA, MK2
ZFN 69919 (synthetic) = details: pair with 69922, 0.1 ug mRNA, MK2
ZFN 64971 (synthetic) = details: pair with 64982, Hepa1-6
ZFN 60460 (synthetic) = details: pair with 64982, Hepa1-6
ZFN 64969 (synthetic) = details: pair with 64982, Hepa1-6
ZFN 69913 (synthetic) = details: pair with 69909, 0.1 ug mRNA, MK2
ZFN 69912 (synthetic) = details: pair with 69909, 0.1 ug mRNA, MK2
ZFN 58781 (synthetic) = details: pair with 65086, Hepa1-6
ZFN 65095 (synthetic) = details: pair with 65086, Hepa1-6
ZFN 65094 (synthetic) = details: pair with 65086, Hepa1-6
ZFN 65098 (synthetic) = details: pair with 65086, Hepa1-6
ZFN 60045 (synthetic) = details: pair with 60043, K562
ZFN 60309 (synthetic) = details: pair with 60308, K562
ZFN 64555 (synthetic) = details: pair with 66075, 5 ug/mL
ZFN 60393 (synthetic) = details: pair with 64989, Hepa1-6
ZFN 65022 (synthetic) = details: pair with 64989, Hepa1-6
ZFN 65021 (synthetic) = details: pair with 64989, Hepa1-6
ZFN 64802 (synthetic) = details: pair with 64842, Hepa1-6
ZFN 64793 (synthetic) = details: pair with 64842, Hepa1-6
ZFN 60422 (synthetic) = details: pair with 64842, Hepa1-6
ZFN 64791 (synthetic) = details: pair with 64842, Hepa1-6
ZFN 64347 (synthetic) = details: pair with 60751, HepG2, 40 ug/mL
ZFN 60308 (synthetic) = details: pair with 60309, K562
ZFN 67493 (synthetic) = details: pair with 60750, HepG2, 40 ug/mL
ZFN 67495 (synthetic) = details: pair with 60750, HepG2, 40 ug/mL
ZFN 60751 (synthetic) = details: pair with 64347, HepG2, 40 ug/mL
ZFN 60134 (synthetic) = details: pair with 60133, K562

“GGGGTGGTGACTCACCGGCCACGTGGGC (double strand) [mouse PCSK9 site F right]” was tested, and the activity (ZFN 64983 (synthetic)) was 95.2 % indel, the activity (ZFN 64982 (synthetic)) was 95.9 % indel and the activity (ZFN 60461 (synthetic)) was 85.8 % indel.

“GGGGTGGTGACTTACCAGCCACGTGGGC (double strand) [M. mulatta PCSK9 exon 7 right]” was tested, and the activity (ZFN 69929 (synthetic)) was 43.3 % indel, the activity (ZFN 69926 (synthetic)) was 37 % indel and the activity (ZFN 69925 (synthetic)) was 77 % indel. For the same sequence, the activity (ZFN 69928 (synthetic)) was 69.2 % indel and the activity (ZFN 69922 (synthetic)) was 81.4 % indel.

“GGTACCGGGCGGATGAATACCAGCCCCC (double strand) [human PCSK9 60334 site]” gave an activity (ZFN 60334 (synthetic)) of 67.9 % indel.

“GTCGATGGTCAGCACAGCCTTATGCACG (double strand) [SERPINA1 25264 site]” showed an activity (ZFN 25264 (synthetic)) of 40.9 % indel.

For “GTGGAGGCTGCCCGGCACCTACGTGGTG (double strand) [M. mulatta PCSK9 exon 2 left]”, the activity (ZFN 69909 (synthetic)) was 58.7 % indel, the activity (ZFN 69908 (synthetic)) was 42.5 % indel and the activity (ZFN 69903 (synthetic)) was 33.7 % indel.

For “GTGGGACATCGCAGGCTGCTGCCCACGT (double strand) [M. mulatta PCSK9 exon 7 left]”, the activity (ZFN 69920 (synthetic)) was 72.1 % indel, the activity (ZFN 69916 (synthetic)) was 81.4 % indel and the activity (ZFN 69915 (synthetic)) was 78 % indel. It also gave an activity (ZFN 69918 (synthetic)) of 71.2 % indel and an activity (ZFN 69919 (synthetic)) of 76.1 % indel.

For “GTGGGACCTCACAGGCTGCTGCCCACGT (double strand) [mouse PCSK9 site F left]”, the activity (ZFN 64971 (synthetic)) was 95.9 % indel, the activity (ZFN 60460 (synthetic)) was 53.8 % indel and the activity (ZFN 64969 (synthetic)) was 86.1 % indel.

“GTGGTGCTGAAGGAGGAGACCCACCGCT (double strand) [M. mulatta PCSK9 exon 2 right]” was tested, and the activity (ZFN 69913 (synthetic)) was 53.4 % indel and the activity (ZFN 69912 (synthetic)) was 58.7 % indel.

Work on “GTGGTGCTGATGGAGGAGACCCAGAGGC (double strand) [mouse PCSK9 site J right]” yielded an activity (ZFN 58781 (synthetic)) of 62.3 % indel, an activity (ZFN 65095 (synthetic)) of 76.7 % indel and an activity (ZFN 65094 (synthetic)) of 77.8 % indel. The activity (ZFN 65098 (synthetic)) was 77.2 % indel.

With “TACGTGGTGGTGCTGAAGGAGGAGACCC (double strand) [human PCSK9 60045 site]” the activity (ZFN 60045 (synthetic)) was 65.4 % indel.

“TATCCCCGGCGGGCAGCCTGGGCCTGCA (double strand) [human PCSK9 60309 site]” showed an activity (ZFN 60309 (synthetic)) of 71.8 % indel.

For “TCCCAGCTGATAGATGGGTCTATTGCTT (double strand) [M. mulatta HAO1 right]”, the activity (ZFN 64555 (synthetic)) was 86.9 % indel.

In the case of “TCCTCCTGGGACGGGAGGGCGAGCATCA (double strand) [mouse PCSK9 site G right]”, the activity (ZFN 60393 (synthetic)) is reported as 60.9 % indel, the activity (ZFN 65022 (synthetic)) is reported as 76.3 % indel and the activity (ZFN 65021 (synthetic)) is reported as 83.3 % indel.

Sequence “TCGGGAGATTGAGGGCAGGGTCACCATC (double strand) [mouse PCSK9 site A left]” has an activity (ZFN 64802 (synthetic)) of 43 % indel, an activity (ZFN 64793 (synthetic)) of 44.9 % indel and an activity (ZFN 60422 (synthetic)) of 35 % indel. The activity (ZFN 64791 (synthetic)) was 41.8 % indel.

Work on “TCTTACTGGAAGGCACTTGGCATCTCCC (double strand) [human TTR 64347 site]” yielded an activity (ZFN 64347 (synthetic)) of 63.5 % indel.

With “TGCAGGCGGCGGGCAGTGCGCTCTGACT (double strand) [human PCSK9 60308 site]” the activity (ZFN 60308 (synthetic)) was 71.8 % indel.

With “TGCATGCTCATGGAATGGGGAGATGCCA (double strand) [human TTR exon 3 right]” the activity (ZFN 67493 (synthetic)) was 59.2 % indel, the activity (ZFN 67495 (synthetic)) was 61.8 % indel and the activity (ZFN 60751 (synthetic)) was 63.5 % indel.

“TTACCGGGGGGCTGGTATTCATCCGCCC (double strand) [human PCSK9 60134 site]” was tested, and the activity (ZFN 60134 (synthetic)) was 72.6 % indel.
